Data as given in patent US20240100174A1, “PROTEIN-PEG INTERACTIONS THAT REDIRECT THE THERMAL UNFOLDING PATHWAY OF PEGYLATED HUMAN GALECTIN-3C” (UNIVERSITY OF FLORIDA RESEARCH FOUNDATION, INCORPORATED, priority 2022, published 2024).
Several values for one entry are separate records, joined by “and”; a condition that tells them apart may be missing. Equal values may be shown once.

Tests used:
[1] = Variable temperature circular dichroism (CD) thermal unfolding; format: physicochemical; settings: for fitted melting temperature (Tm): CD at 220 nm
Experimental: CD spectroscopic data were recorded with an Applied Photophysics™ Chirascan spectrophotometer equipped with a Quantum Northwestern Peltier temperature control device and operating with Chirascan v4.7.0 and Pro-Data™ Viewer software. Samples were prepared in PBS at final concentrations of 10 μM. All samples were contained in 2 mm tapered quartz cuvettes, and a temperature probe was inserted through the cuvette cap to monitor the sample temperature in real time. The following parameters were used for constant temperature experiments: CD signal measured in millidegrees, bandwidth of 1.0 nm, wavelength scan from 200-280 nm, step size of 2.0 nm. Spectra were background subtracted against the sample buffer. For thermal unfolding experiments, a linear thermal ramp was applied from 30° C. to 90° C. at 1° C. per minute. All spectra were measured in triplicate, and data were normalized to account for slight differences in protein concentration.
To calculate melting temperatures of unconjugated Gal3C, Gal3C[T243C], and Gal3C[T243C] variants containing lysine replacements, the normalized data were fit to a Boltzmann sigmoidal function in Origin v8.5. For the data fitting, no parameters were fixed, and the ‘x’ parameter defined as the center of the data was interpreted as the melting temperature (Tm). Variable temperature CD data of PEGylated Gal3C[T243C] and Gal3C[T243C] variants were fit with a sum of two Boltzmann sigmoidal functions, as shown below:
where ‘A1’, ‘A2’, and ‘A3’ represent three plateaus of the CD signal, ‘dx1’ and ‘dx2’ are the change in x between the plateaus for each melting transition, and ‘x1’ and ‘x2’ are the two Tm values extracted by the fit for the first and second unfolding transitions, respectively. Because the third plateau, A3, occurred at temperatures higher than the experimentally accessible range, this value was estimated. A single wavelength for plotting on the y-axis was selected by calculating the wavelength of greatest CD signal change for each PEGylated construct.
To record a CD spectrum of Gal3C[T243C] with free PEG, a stock solution of methoxy-PEG (mPEG) in 1×PBS was added immediately before the experiment to a solution containing protein (20 μM, 1 ×PBS) to a final concentration of 22 μM mPEG. All thermal melt parameters were the same as listed in the above described experiments.
CD spectroscopic data were recorded with an Applied Photophysics Chirascan spectrophotometer equipped with a Quantum Northwestern Peltier temperature control device and operating with Chirascan v4.7.0 and Pro-Data Viewer software, following procedures used in our previous study.^4 Spectra were background subtracted against the sample buffer. For thermal unfolding experiments, a linear thermal ramp was applied from 30° C. to 90° C. at 1° C. per minute with samples concentrated to 10 μM in PBS. All spectra were measured in triplicate, and data were normalized to account for slight differences in protein concentration.
Full wavelength (200-280 nm) CD spectra for each construct (FIG. 43) were used to calculate a wavelength of greatest change (222 or 224 nm) to create single wavelength CD vs. temperature plots (FIG. 30H-J and FIG. 31F-G). The single wavelength CD signal vs. temperature plot of Gal3C[T243C] used data acquired at 220 nm, which was the wavelength of greatest change for the unmodified protein. To calculate melting temperatures, the normalized data were fit to a Boltzmann sigmoidal function in Origin v8.5. For the data fitting, no parameters were fixed, and the ‘x’ parameter defined as the center of the data was interpreted as the melting temperature (Tm).

[2] = Rotational correlation time from 15N T1/T2 NMR relaxation; format: physicochemical; settings: 30° C.; error is 95% confidence interval
Experimental: NMR data were recorded for temperatures between 30° C. and 55° C., as noted in the main text, with a Broker Avance™ III spectrometer operating at 800 MHz, running Topspin™ version 3.6.3 and equipped with a 5 mm TXI cryoprobe. The temperature was calibrated using a standard sample of 4% methanol in d4-MeOH. 2D [^15N, ^1H]-HSQC spectra were recorded using a gradient sensitivity-enhanced pulse sequence (hsqcetf3gpsi) with 2048 points in the direct dimension, between 180 to 260 points in the indirect dimension and between 32 to 736 scans per experiment, depending on the final sample concentration to achieve similar signal-to-noise ratios for all data. The ^15N T1 and T2 relaxation measurements were acquired with 1D ^15N-edited HSQC-based experiments (hsqct1etf3gpsi3d and hsqct2etf3gpsi3d) with 2048 points and 512 scans per experiment. For T1 measurements, experiments were recorded with relaxation delays of 0.02, 0.05, 0.1, 0.2, 0.3, 0.4, 0.6, 0.8,1, 1.2 or 1.5 s. […]
The rotational correlation times τc of Gal3C[T243C] and Gal3C[T243C]-PEG was then determined from T1 and T2 using the following spectral density function (j(ω)) equations […]
To investigate whether PEG and Gal3C[T243C] behaved more as two independent domains within the conjugated protein or if they interacted more closely, the rotational correlation times (τc) for Gal3C[T243C] and Gal3C[T243C]-PEG at 30° C. were determined. […]

B1: Gal3C[T243C]: Gal3C variant with a single extrinsic cysteine at position 243; SEQ ID NO: 11 (protein)
chain: MAGPLIVPYNLPLPGGVVPRMLITILGTVKPNANRIALDFQRGNDVAFHFNPRFNENNRRVIVCNTKLDNNWGREERQSVFPFESGKPFKIQVLVEPDHFKVAVNDAHLLQYNHRVKKLNEISKLGISGDIDLTSASYCMILEHHHHHH
fitted melting temperature (Tm) ([1]; 20 μM protein in the absence of free PEG-OH): 57.5 °C | fitted melting temperature (Tm) ([1]; 20 μM protein in the presence of 22 μM free PEG-OH): 57.7 °C | Tm1 ± StDev ([1]; normalized CD at 220 nm vs. temperature, 3 replicates averaged, ramp 30-90° C. at 1° C. per minute): 58.1 °C and 58.1 ± 0.5 °C | thermal unfolding behaviour / formation of unfolding intermediate ([1]; result in words, for polymer conjugates the selected SEC fractions): single cooperative unfolding transition | Tm / Tm1 ([1]; values of Summary of Results, Tm for unconjugated protein, Tm1 for PEG conjugate): 58.0 °C | rotational correlation time (τc) [2]: 10.7 (±0.7) ns
